According to article PMC3706390:

Legend:
[1] = biological target: T1, L30 (ribosomal protein L30) wild-type (rat, UniProt P62890 1-115); assay: EMSA; 5 mM Mg2+; 30 mM Tris-HCl pH 8.0, 75 mM KCl, 5 mM MgCl2, 1 mM DTT, 0.04 ug/uL BSA, 10% glycerol, 50 ng/uL yeast tRNA, 30 C 15 min; EMSA gels 0.5X TBE at 4 C; RNase digesti
[2] = biological target: T1, L30 (ribosomal protein L30) wild-type; assay: UV cross-linking; 30 mM Tris-HCl pH 8.0, 75 mM KCl, 5 mM MgCl2, 1 mM DTT, 0.04 ug/uL BSA, 10% glycerol, 50 ng/uL yeast tRNA, 30 C 15 min; EMSA gels 0.5X TBE at 4 C; RNase digesti

Binder | Kd [1] | binding result [2]
GGGACCGGAGUGUCGCAAGACGCAGAGAUGGUCC (structured_RNA) [L30 RNA (stem-loop of L30 pre-mRNA)] | 170 nM | 
PHGPx SECIS wild-type (UV cross-linking) (structured_RNA) RNA: CUGCCCUGUGACCCCUGGAGCCUUCCACCCCGGCACUCAUGACGGUCUGCCUGAAAACCAGCCCGCUGGUGGGGCAGUCCCGAGGACCUGGCGUGCAUCCCCGCCGGAGGAAGGUCCAGACGCUGUGGCC |  | binds
PHGPx SECIS U40C (structured_RNA) RNA: CUGCCCUGUGACCCCUGGAGCCUUCCACCCCGGCACUCACGACGGUCUGCCUGAAAACCAGCCCGCUGGUGGGGCAGUCCCGAGGACCUGGCGUGCAUCCCCGCCGGAGGAAGGUCCAGACGCUGUGGCC |  | no binding
